Test results reported in article PMC6754446, “Regulation of the endosomal SNX27-retromer by OTULIN” (Nature Communications, 2019).
Each block holds one binder with its values, some of them ahead of it. No end group written: not given here.

How the values were obtained:
Conditions in all cases: both partners purified
OTULINcat (aa 80-352) [1] = molecular target: T1, OTULINcat (aa 80-352) (human, UniProt Q96BN8 80-352); test: ITC; PDZ variant (150-450 µM) in the syringe, OTULINcat variant (20-30 µM) in the cell; 25 °C; 20 mM HEPES pH 7.4, 200 mM NaCl, 2 mM TCEP; single-site binding model
OTULINcat (aa 80-352) [2] = molecular target: T1, OTULINcat (aa 80-352); test: ITC; SHANK1-3 PDZ in the syringe, OTULINcat in the cell; 30 °C; 20 mM HEPES pH 7.4, 200 mM NaCl, 2 mM TCEP; single-site binding model
OTULINcat (aa 80–352) = molecular target: T2, OTULINcat (aa 80–352) (human, UniProt Q96BN8 80-352); test: ITC; 25 °C, 20 mM HEPES pH 7.4, 200 mM NaCl, 2 mM TCEP; 20–30 µM OTULINcat variant in the cell, 150–450 µM PDZ variant in the syringe; single-site model
T2 construct: OTULIN, human, aa 80–352; His6-3C construct in pOPIN-B; tag cleaved with 3C protease; source: E. coli Rosetta2 (DE3) pLacI, purified (HisTrap, anion exchange, SEC)

SNX27PDZ (aa 40–135) = SNX27PDZ (aa 40–135) (human, UniProt Q96L92 40-135); test: as above
[3] = molecular target: SNX27 PDZ domain (aa 40-135) (human, UniProt Q96L92 40-135); test: ITC; SNX27PDZ in the cell; OTULINcat, OTULIN PDZbm peptide or VPS26A in the syringe; 25 °C; 20 mM HEPES pH 7.4, 200 mM NaCl, 2 mM TCEP; single-site binding model

T1 sequence (Q96BN8 80-352): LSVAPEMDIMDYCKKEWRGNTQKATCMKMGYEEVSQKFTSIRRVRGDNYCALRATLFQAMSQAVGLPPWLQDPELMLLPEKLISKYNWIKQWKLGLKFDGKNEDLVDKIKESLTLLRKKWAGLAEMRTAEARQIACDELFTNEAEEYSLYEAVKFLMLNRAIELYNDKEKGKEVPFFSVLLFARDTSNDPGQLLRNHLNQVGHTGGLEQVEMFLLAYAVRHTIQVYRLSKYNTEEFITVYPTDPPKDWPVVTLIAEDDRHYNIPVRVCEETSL
T2 sequence (Q96BN8 80-352): as above

B1: PSD95 PDZ2 (155-249) (domain or fragment, UniProt P78352 155-249, looked up)
chain: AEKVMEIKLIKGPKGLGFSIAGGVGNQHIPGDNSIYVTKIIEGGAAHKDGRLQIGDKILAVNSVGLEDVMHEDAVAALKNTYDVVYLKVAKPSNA
notes: PSD95, second PDZ domain, residues 155-249; The printed DNA (285 nt) fits 95 residues; source: E. coli, purified analogous to SNX27PDZ (pOPIN-S vector)
Kd (OTULINcat (aa 80-352) [1]): 98.9 µM
stoichiometry N (OTULINcat (aa 80-352) [1]): 0.91

Kd (OTULINcat (aa 80-352) [2]): 22.6 µM
stoichiometry N (OTULINcat (aa 80-352) [2]): 1
B2: SHANK1 PDZ domain (654-763) (domain or fragment, UniProt Q9Y566 654-763, looked up)
chain: GSDYIIKEKTVLLQKKDSEGFGFVLRGAKAQTPIEEFTPTPAFPALQYLESVDEGGVAWRAGLRMGDFLIEVNGQNVVKVGHRQVVNMIRQGGNTLMVKVVMVTRHPDMD
notes: source: E. coli, purified analogous to SNX27PDZ (pOPIN-S vector)

Kd (OTULINcat (aa 80–352)): 1710 µM
B3: Syntenin1 PDZ1 (domain or fragment, UniProt O00560 114-193, looked up)
chain: EVILCKDQDGKIGLRLKSIDNGIFVQLVQANSPASLVGLRFGDQVLQINGENCAGWSSDKAHKVLKQAFGEKITMTIRDR
notes: Syntenin1, PDZ1; source: expressed and purified analogous to SNX27PDZ (E. coli Rosetta2 (DE3) pLacI); His6-SUMO cleaved with SUMO protease

Kd (OTULINcat (aa 80-352) [1]): 35.6 µM
stoichiometry N (OTULINcat (aa 80-352) [1]): 1.14
B4: NHERF1 PDZ2 (150-235) (domain or fragment, UniProt O14745 150-235, looked up)
chain: LRPRLCTMKKGPSGYGFNLHSDKSKPGQFIRSVDPDSPAEASGLRAQDRIVEVNGVCMEGKQHGDVVSAIRAGGDETKLLVVDRET
notes: The printed DNA (258 nt) fits 86 residues; source: E. coli, purified analogous to SNX27PDZ (pOPIN-S vector)

Kd (OTULINcat (aa 80-352) [1]): 38.3 µM
stoichiometry N (OTULINcat (aa 80-352) [1]): 0.96
B5: RhoGEF PDZ domain (41-123) (domain or fragment, UniProt O15085 41-123, looked up)
chain: TGLVQRCVIIQKDQHGFGFTVSGDRIVLVQSVRPGGAAMKAGVKEGDRIIKVNGTMVTNSSHLEVVKLIKSGAYVALTLLGSS
notes: RhoGEF, PDZ domain, residues 41-123; The printed DNA (249 nt) fits 83 residues; source: E. coli, purified analogous to SNX27PDZ (pOPIN-S vector)

Kd (OTULINcat (aa 80-352) [2]): 23.9 µM
stoichiometry N (OTULINcat (aa 80-352) [2]): 0.99
B6: SHANK2 PDZ domain (239-347) (domain or fragment)
chain: SDCIIEEKTVVLQKKDNEGFGFVLRGAKADTPIEEFTPTPAFPALQYLESVDEGGVAWQAGLRTGDFLIEVNNENVVKVGHRQVVNMIRQGGNHLVLKVVTVTRNLDPD
modifications: Printed 239-347 follows the older 1470-aa Q9UPX8 numbering; offset +379 to the current 1849-aa entry, so that the start falls on SDCIIEEKTV. The His6-SUMO tag was cleaved off.

Kd (SNX27PDZ (aa 40–135)): 1.1 µM
B7: OTULIN C-terminal PDZbm peptide (aa 344–352) (peptide, UniProt Q96BN8 344-352, looked up)
peptide: VRVCEETSL
notes: OTULIN, human, aa 344–352; also called OTULIN PDZbm peptide

Kd (OTULINcat (aa 80-352) [1]): 57.1 µM
stoichiometry N (OTULINcat (aa 80-352) [1]): 0.87
B8: LNX2 PDZ3 (465-560) (domain or fragment, UniProt Q8N448 465-560, looked up)
chain: QEKHITVKKEPHESLGMTVAGGRGSKSGELPIFVTSVPPHGCLARDGRIKRGDVLLNINGIDLTNLSHSEAVAMLKASAASPAVALKALEVQIVEE
notes: LNX2, third PDZ domain, residues 465-560; The printed DNA (288 nt) fits 96 residues; source: E. coli, purified analogous to SNX27PDZ (pOPIN-S vector)

stoichiometry N [3]: 1.07
B9: OTULIN C-terminal PDZbm peptide (aa 344-352) (peptide)
peptide: Ac-VRVCEETSL
notes: OTULIN, human, C-terminal PDZbm peptide, aa 344-352; also called OTULIN PDZbm peptide

stoichiometry N (OTULINcat (aa 80-352) [1]): 0.38
B10: Syntenin1 PDZ1 (108-196) (domain or fragment, UniProt Q9JI92 108-196, looked up)
chain: AEIKQGIREVILCKDQDGKIGLRLKSVDNGIFVQLVQANSPASLVGLRFGDQVLQINGENCAGWSSDKAHKVLKQAFGEKITMTIRDRP
notes: Syntenin-1, first PDZ domain, residues 108-196; The printed DNA (267 nt) fits 89 residues; source: E. coli, purified analogous to SNX27PDZ (pOPIN-S vector)

Kd (OTULINcat (aa 80-352) [2]): 26.4 µM
stoichiometry N (OTULINcat (aa 80-352) [2]): 1
B11: SHANK3 PDZ domain (563-671) (domain or fragment)
chain: SDYVIDDKVAVLQKRDHEGFGFVLRGAKAETPIEEFTPTPAFPALQYLESVDVEGVAWRAGLRTGDFLIEVNGVNVVKVGHKQVVALIRQGGNRLVMKVVSVTRKPEED
modifications: Printed 563-671 follows the older 1731-aa SHANK3 numbering; offset +75 to the current 1806-aa entry (inferred by homology to the SHANK2 start, 8 residues before the annotated PDZ). The His6-SUMO tag …
